Data from patent US10337047.

Biological target: T1, HNE specific peptide GSGSGGGAAPVAAKGGGSGSC (not fully specified)
T1 chain: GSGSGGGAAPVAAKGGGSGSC

B1: recombinant Human Neutrophil Elastase (HNE) (protein)
chain: IVGGRRARPHAWPFMVSLQLRGGHFCGATLIAPNFVMSAAHCVANVNVRAVRVVLGAHNLSRREPTRQVFAVQRIFENGYDPVNLLNDIVILQLNGSATINANVQVAQLPAQGRRLGNGVQCLAMGWGLLGRNRGIASVLQELNVTVVTSLCRRSNVCTLVRGRQAGVCFGDSGSPLVCNGLIHGIASFVRGGCASGLYPDAFAPVAQFVNWIDSIIQ
cleavage on the multiplex sensor, HNE alone at 100 ng/mL: maximum reaction was seen in the bottom band containing HNE | cleavage on the multiplex sensor, ratio 0 uL Cathepsin-G to 100 uL HNE: maximum cleavage was seen on the HNE sensor (Bottom band) where a golden color change was visible | detection limit of cleavage in spiked saliva (colorimetric): The limits of detection for both spiked proteases were comparable to those obtained with the purified proteases | detection limit of proteolytic cleavage of the peptide-magnetic bead layer (colorimetric, visible bare gold surface): detection limit to be as low as 1 pg/mL for HNE

B2: recombinant Cathepsin-G enzyme (protein)
chain: IIGGRESRPHSRPYMAYLQIQSPAGQSRCGGFLVREDFVLTAAHCWGSNINVTLGAHNIQRRENTQQHITARRAIRHPQYNQRTIQNDIMLLQLSRRVRRNRNVNPVALPRAQEGLRPGTLCTVAGWGRVSMRRGTDTLREVQLRVQRDRQCLRIFGSYDPRRQICVGDRRERKAAFKGDSGGPLLCNNVAHGIVSYGKSSGVPPEVFTRVSSFLPWIRTTMRS
cleavage on the multiplex sensor, Cathepsin-G alone at 100 ng/mL: there was no cleavage seen in the bottom band | cleavage on the multiplex sensor, ratio 100 uL Cathepsin-G to 0 uL HNE: there was no reaction seen on the HNE sensor (Bottom band)
